# Measurements taken from the supplement of paper PMC9112550, “Optimization of the antimicrobial peptide Bac7 by deep mutational scanning” (BMC Biology, 2022).
# Tested on: Escherichia coli TOP10
# Test: shrunken log2 fold change of peptide-encoding DNA abundance (4.5 h post-induction vs induction); higher = less antimicrobial activity (less host growth inhibition)
# Conditions: time post-induction: 4.5 h; library: site-saturation at positions 5, 18, 19, 20
# 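Further: peptides expressed intracellularly from a pBAD plasmid library in pooled LB shake-flask culture, induced with 0.3% L-arabinose, DNA abundance read by NGS, three biological replicates, DESeq2 with apeglm shrinkage.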
row,Sequence,shrunken log2 fold change
1,RRIRLRPPRLPRPRPRPIAPPRP,0.372
2,RRIRRRPPRLPRPRPRPYKLPRP,-0.669
3,RRIRQRPPRLPRPRPRPFHWPRP,0.0728
4,RRIRERPPRLPRPRPRPLEAPRP,0.105
5,RRIRKRPPRLPRPRPRPCHVPRP,-0.203
6,RRIRERPPRLPRPRPRPVTKPRP,0.365
7,RRIRCRPPRLPRPRPRPQDHPRP,-0.226
8,RRIRQRPPRLPRPRPRPCQLPRP,-0.0105
9,RRIRMRPPRLPRPRPRPEVHPRP,-0.0544
10,RRIRQRPPRLPRPRPRPTRYPRP,0.511
11,RRIRMRPPRLPRPRPRPKPQPRP,1.41
12,RRIRGRPPRLPRPRPRPMTTPRP,1.16
13,RRIRPRPPRLPRPRPRPSLVPRP,-0.222
14,RRIRTRPPRLPRPRPRPRNGPRP,-0.0659
15,RRIRIRPPRLPRPRPRPAMKPRP,-0.0563
16,RRIRERPPRLPRPRPRPCRCPRP,0.00968
17,RRIRDRPPRLPRPRPRPFMVPRP,0.00751
18,RRIRGRPPRLPRPRPRPMWAPRP,0.925
19,RRIRKRPPRLPRPRPRPYRQPRP,-0.122
20,RRIRWRPPRLPRPRPRPGIGPRP,0.433
21,RRIRMRPPRLPRPRPRPNKMPRP,-0.134
22,RRIRNRPPRLPRPRPRPQQRPRP,-0.0535
23,RRIRDRPPRLPRPRPRPVLSPRP,-0.0284
24,RRIRHRPPRLPRPRPRPCSMPRP,-0.0569
25,RRIRKRPPRLPRPRPRPMCAPRP,0.583

row,Sequence,shrunken log2 fold change
1,RRIRPRPPRLPRPRPRPDTRPRP,0.0199
2,RRIRQRPPRLPRPRPRPANRPRP,-0.0467
3,RRIRIRPPRLPRPRPRPSTQPRP,-0.0353
4,RRIRQRPPRLPRPRPRPYVLPRP,-0.512
5,RRIRRRPPRLPRPRPRPHLKPRP,-0.0915
6,RRIRNRPPRLPRPRPRPLRMPRP,0.361
7,RRIRFRPPRLPRPRPRPWCVPRP,-0.384
8,RRIRERPPRLPRPRPRPKHPPRP,-0.0977
9,RRIRGRPPRLPRPRPRPYIIPRP,-0.158
10,RRIRNRPPRLPRPRPRPARPPRP,2.86
11,RRIRIRPPRLPRPRPRPEFYPRP,-0.333
12,RRIRSRPPRLPRPRPRPSVIPRP,-0.602
13,RRIRTRPPRLPRPRPRPVAPPRP,0.389
14,RRIRSRPPRLPRPRPRPCWHPRP,-0.245
15,RRIRQRPPRLPRPRPRPEYHPRP,-0.141
16,RRIRVRPPRLPRPRPRPMHMPRP,-0.164
17,RRIRHRPPRLPRPRPRPQDHPRP,-0.215
18,RRIRQRPPRLPRPRPRPHDQPRP,0.00277
19,RRIRRRPPRLPRPRPRPMAVPRP,-0.165
20,RRIRFRPPRLPRPRPRPGMSPRP,0.0155
21,RRIRGRPPRLPRPRPRPRCPPRP,1.4
22,RRIRHRPPRLPRPRPRPIYWPRP,-0.181
23,RRIRCRPPRLPRPRPRPEFHPRP,-0.664
24,RRIRQRPPRLPRPRPRPIVQPRP,-0.0505
25,RRIRIRPPRLPRPRPRPANSPRP,-0.204

row,Sequence,shrunken log2 fold change
1,RRIRSRPPRLPRPRPRPTIHPRP,-0.51
2,RRIRKRPPRLPRPRPRPCHTPRP,0.0319
3,RRIRIRPPRLPRPRPRPGNVPRP,-0.0399
4,RRIRIRPPRLPRPRPRPFWQPRP,-0.31
5,RRIRQRPPRLPRPRPRPVVNPRP,-0.126
6,RRIRWRPPRLPRPRPRPCHEPRP,-0.00847
7,RRIRQRPPRLPRPRPRPETFPRP,-0.0643
8,RRIRTRPPRLPRPRPRPIRYPRP,-0.0148
9,RRIRHRPPRLPRPRPRPFMTPRP,-0.188
10,RRIRMRPPRLPRPRPRPVELPRP,-0.281
11,RRIRGRPPRLPRPRPRPFCMPRP,0.0902
12,RRIRNRPPRLPRPRPRPSVQPRP,-0.0954
13,RRIRTRPPRLPRPRPRPFEEPRP,0.00896
14,RRIRWRPPRLPRPRPRPCYVPRP,-0.127
15,RRIRERPPRLPRPRPRPRWMPRP,0.0378
16,RRIRLRPPRLPRPRPRPKPPPRP,0.586
17,RRIRTRPPRLPRPRPRPFPFPRP,-0.406
18,RRIRRRPPRLPRPRPRPFLMPRP,0.0572
19,RRIRYRPPRLPRPRPRPELIPRP,-0.363
20,RRIRDRPPRLPRPRPRPWKYPRP,-0.331
21,RRIRNRPPRLPRPRPRPKWSPRP,0.0717
22,RRIRVRPPRLPRPRPRPENHPRP,-0.187
23,RRIRVRPPRLPRPRPRPRQSPRP,0.181
24,RRIRDRPPRLPRPRPRPCSTPRP,0.248
25,RRIRYRPPRLPRPRPRPKNSPRP,-1.22

row,Sequence,shrunken log2 fold change
1,RRIRFRPPRLPRPRPRPEIWPRP,0.217
2,RRIRGRPPRLPRPRPRPQFPPRP,-0.0214
3,RRIRHRPPRLPRPRPRPSVHPRP,-0.204
4,RRIRCRPPRLPRPRPRPHPKPRP,-0.102
5,RRIRLRPPRLPRPRPRPYWNPRP,-1.03
6,RRIRQRPPRLPRPRPRPDPNPRP,-0.187
7,RRIRERPPRLPRPRPRPEMQPRP,-0.0367
8,RRIRMRPPRLPRPRPRPEKDPRP,2.62
9,RRIRGRPPRLPRPRPRPEFWPRP,2.24
10,RRIRLRPPRLPRPRPRPSTDPRP,-0.356
11,RRIRLRPPRLPRPRPRPAAGPRP,0.312
12,RRIRWRPPRLPRPRPRPKFQPRP,-0.00693
13,RRIRARPPRLPRPRPRPPEWPRP,0.734
14,RRIRSRPPRLPRPRPRPHSPPRP,0.146
15,RRIRVRPPRLPRPRPRPHMMPRP,-0.659
16,RRIRQRPPRLPRPRPRPGKFPRP,-0.148
17,RRIRTRPPRLPRPRPRPLHGPRP,0.184
18,RRIRDRPPRLPRPRPRPFSRPRP,-0.164
19,RRIRDRPPRLPRPRPRPHPPPRP,0.402
20,RRIRGRPPRLPRPRPRPLVKPRP,0.546
21,RRIRYRPPRLPRPRPRPTRYPRP,-0.469
22,RRIRKRPPRLPRPRPRPFYYPRP,-0.587
23,RRIRSRPPRLPRPRPRPHHAPRP,-0.41
24,RRIRIRPPRLPRPRPRPTWYPRP,-0.668
25,RRIRSRPPRLPRPRPRPGFGPRP,0.463

row,Sequence,shrunken log2 fold change
1,RRIRERPPRLPRPRPRPPQGPRP,0.158
2,RRIRVRPPRLPRPRPRPMEFPRP,-0.03
3,RRIRIRPPRLPRPRPRPMWFPRP,-0.0453
4,RRIRSRPPRLPRPRPRPNCNPRP,-0.473
5,RRIRHRPPRLPRPRPRPENQPRP,-0.243
6,RRIRCRPPRLPRPRPRPENCPRP,0.0153
7,RRIRVRPPRLPRPRPRPHSLPRP,-0.232
8,RRIRPRPPRLPRPRPRPRHYPRP,0.101
9,RRIRNRPPRLPRPRPRPMITPRP,-0.0996
10,RRIRNRPPRLPRPRPRPNLHPRP,-0.728
11,RRIRTRPPRLPRPRPRPSQDPRP,-0.355
12,RRIRFRPPRLPRPRPRPTLLPRP,-0.0998
13,RRIRKRPPRLPRPRPRPNGRPRP,0.131
14,RRIRYRPPRLPRPRPRPADGPRP,0.143
15,RRIRNRPPRLPRPRPRPSGCPRP,-0.151
16,RRIRIRPPRLPRPRPRPPAGPRP,0.518
17,RRIRYRPPRLPRPRPRPWHQPRP,-0.883
18,RRIRTRPPRLPRPRPRPPVTPRP,0.361
19,RRIRHRPPRLPRPRPRPSMFPRP,-0.163
20,RRIRCRPPRLPRPRPRPWCMPRP,-0.585
21,RRIRTRPPRLPRPRPRPIKIPRP,-0.426
22,RRIRRRPPRLPRPRPRPATRPRP,0.226
23,RRIRIRPPRLPRPRPRPHKEPRP,0.0692
24,RRIRRRPPRLPRPRPRPSFNPRP,-0.192
25,RRIRARPPRLPRPRPRPDRVPRP,-0.0545

row,Sequence,shrunken log2 fold change
1,RRIRDRPPRLPRPRPRPGCWPRP,1.03
2,RRIRARPPRLPRPRPRPRTTPRP,0.755
3,RRIRSRPPRLPRPRPRPDAVPRP,0.32
4,RRIRPRPPRLPRPRPRPPDAPRP,0.553
5,RRIRWRPPRLPRPRPRPEVPPRP,0.0568
6,RRIRSRPPRLPRPRPRPICFPRP,-0.15
7,RRIRMRPPRLPRPRPRPGSLPRP,0.432
8,RRIRLRPPRLPRPRPRPTIGPRP,-0.192
9,RRIRTRPPRLPRPRPRPDYKPRP,-0.303
10,RRIRDRPPRLPRPRPRPKGNPRP,0.0802
11,RRIRLRPPRLPRPRPRPSSQPRP,-0.0758
12,RRIRKRPPRLPRPRPRPDEFPRP,1.24
13,RRIRQRPPRLPRPRPRPKLEPRP,0.563
14,RRIRSRPPRLPRPRPRPSFCPRP,-0.251
15,RRIRSRPPRLPRPRPRPISRPRP,-0.416
16,RRIRNRPPRLPRPRPRPKMYPRP,-0.0156
17,RRIRFRPPRLPRPRPRPHRDPRP,-0.36
18,RRIRTRPPRLPRPRPRPMCMPRP,-0.0542
19,RRIRYRPPRLPRPRPRPNYYPRP,-1.16
20,RRIRRRPPRLPRPRPRPQCSPRP,0.109
21,RRIRTRPPRLPRPRPRPERKPRP,0.0268
22,RRIRLRPPRLPRPRPRPWNTPRP,-0.444
23,RRIRVRPPRLPRPRPRPTTFPRP,-0.118
24,RRIRDRPPRLPRPRPRPGPSPRP,-0.0742
25,RRIRIRPPRLPRPRPRPVLDPRP,0.0135
